{
  "source": "paper PMC8159449",
  "target": "T1, retinoblastoma protein (RB) (Homo sapiens, UniProt P06400 1-928)",
  "T1 sequence": "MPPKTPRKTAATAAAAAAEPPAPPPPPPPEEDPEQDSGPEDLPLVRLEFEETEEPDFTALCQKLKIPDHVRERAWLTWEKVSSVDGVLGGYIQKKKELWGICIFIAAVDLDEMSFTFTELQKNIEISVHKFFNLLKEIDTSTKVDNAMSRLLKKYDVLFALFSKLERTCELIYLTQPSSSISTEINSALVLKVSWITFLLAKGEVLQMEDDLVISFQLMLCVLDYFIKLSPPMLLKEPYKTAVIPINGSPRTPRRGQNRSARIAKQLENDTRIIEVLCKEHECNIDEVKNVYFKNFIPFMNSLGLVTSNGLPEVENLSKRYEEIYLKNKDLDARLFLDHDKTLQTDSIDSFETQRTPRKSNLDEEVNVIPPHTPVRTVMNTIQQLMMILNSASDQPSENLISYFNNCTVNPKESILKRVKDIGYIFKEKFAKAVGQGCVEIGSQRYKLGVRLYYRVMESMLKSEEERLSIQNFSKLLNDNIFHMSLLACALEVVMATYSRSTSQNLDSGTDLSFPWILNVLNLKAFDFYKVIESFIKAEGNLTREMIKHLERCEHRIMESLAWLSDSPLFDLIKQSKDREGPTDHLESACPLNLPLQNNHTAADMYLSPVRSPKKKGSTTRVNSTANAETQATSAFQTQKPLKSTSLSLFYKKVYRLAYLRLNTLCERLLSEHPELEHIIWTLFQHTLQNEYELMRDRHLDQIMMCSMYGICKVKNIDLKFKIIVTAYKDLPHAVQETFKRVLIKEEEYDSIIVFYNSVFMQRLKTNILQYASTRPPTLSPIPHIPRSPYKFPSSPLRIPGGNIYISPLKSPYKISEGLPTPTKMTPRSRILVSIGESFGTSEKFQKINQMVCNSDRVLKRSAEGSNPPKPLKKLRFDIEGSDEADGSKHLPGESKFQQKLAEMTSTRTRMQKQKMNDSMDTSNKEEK",
  "experiment": "ELONA",
  "data": [
    {"binder": "GGAGGGUGGAGGGAAGGG (structured_RNA)", "note": "[18E16]", "values": [
      {"measurement": "Kd", "value": "5.1 ± 0.7", "unit": "nM"}
    ]}
  ]
}
